In patent US20030082668:

T1: Boc-Val-Leu-(Ac)Lys-MCA
T1 sequence: VLK

T2: Nma-VGAK(Ac)RHSK(Dnp)-NH2
T2 sequence: VGAKRHSK

T3: Boc-Val-Leu-Lys-MCA
T3 sequence: VLK

T4: Nma-VGAK(Ac)RHSK(Dnp)-NH2
T4 chain: VGAKRHSK

B1: recombinant SIRT1 (GST fused to the amino terminal end) (protein)
chain: MADEAALALQPGGSPSAAGADREAASSPAGEPLRKRPRRDGPGLERSPGEPGGAAPEREVPAAARGCPGAAAAALWREAEAEAAAAGGEQEAQATAAAGEGDNGPGLQGPSREPPLADNLYDEDDDDEGEEEEEAAAAAIGYRDNLLFGDEIITNGFHSCESDEEDRASHASSSDWTPRPRIGPYTFVQQHLMIGTDPRTILKDLLPETIPPPELDDMTLWQIVINILSEPPKRKKRKDINTIEDAVKLLQECKKIIVLTGAGVSVSCGIPDFRSRDGIYARLAVDFPDLPDPQAMFDIEYFRKDPRPFFKFAKEIYPGQFQPSLCHKFIALSDKEGKLLRNYTQNIDTLEQVAGIQRIIQCHGSFATASCLICKYKVDCEAVRGDIFNQVVPRCPRCPADEPLAIMKPEIVFFGENLPEQFHRAMKYDKDEVDLLIVIGSSLKVRPVALIPSSIPHEVPQILINREPLPHLHFDVELLGDCDVIINELCHRLGGEYAKLCCNPVKLSEITEKPPRTQKELAYLSELPPTPLHVSEDSSSPERTSPPDSSVIVTLLDQAAKSNDDLDVSESKGCMEEKPQEVQTSRNVESIAEQMENPDLKNVGSSTGEKNERTSVAGTVRKCWPNRVAKEQISRRLDGNQYLFLPPNRYIFHGAEVYSDSEDDVLSSSSCGSNSDSGTCQSPSLEEPMEDESEIEEFYNGLEDEPDVPERAGGAGFGTDGDDQEAINEAISVKQEVTDMNYPSNKS

Tests used:
Boc-Val-Leu-(Ac)Lys-MCA = tested on: T1, Boc-Val-Leu-(Ac)Lys-MCA
[1] = tested on: T2, Nma-VGAK(Ac)RHSK(Dnp)-NH2
Boc-Val-Leu-Lys-MCA = tested on: T3, Boc-Val-Leu-Lys-MCA
[2] = target: T4, Nma-VGAK(Ac)RHSK(Dnp)-NH2

Molecule	peptide cleavage activity (fluorescence intensity of released AMC) (Boc-Val-Leu-(Ac)Lys-MCA)	peptide cleavage (fluorescence intensity) [1]	peptide cleavage activity (fluorescence intensity of released AMC) (Boc-Val-Leu-Lys-MCA)	NAD-dependent deacetylase activity (fluorescence intensity, lysylendopeptidase-coupled assay) [2]	deacetylase activity (fluorescence intensity, lysylendopeptidase-coupled assay) [2]
lysylendopeptidase	did not cleave Boc-Val-Leu-(Ac)Lys-MCA	In the absence of recombinant SIRT1, the fluorescence intensity did not increase, namely, the fluorescent substrate was not cleaved off by LEP at all.	digested Boc-Val-Leu-Lys-MCA		
plasmin	did not cleave Boc-Val-Leu-(Ac)Lys-MCA		digested Boc-Val-Leu-Lys-MCA		
B1				the fluorescence intensity increased in an NAD concentration-dependent fashion. In the absence of NAD, regardless of the presence of the recombinant SIRT1, the fluorescence intensity did not increase	the fluorescence intensity increased was proportional to the recombinant SIRT1 concentration
